Data: paper PMC3305072

Key:
[1] = SEC; Superdex 200 GL 10/300, PBS pH 7.5, protein injected at 50 µM, 0.5 mL/min, A280; percent of monomeric, dimeric and high molecular weight species
[2] = SEC; Superdex 200 GL 10/300, PBS pH 7.5, protein injected at 120 µM, 0.5 mL/min, A280; percent of monomeric, dimeric and high molecular weight species
[3] = SEC; Superdex 200 GL 10/300, PBS pH 7.5, protein injected at 10 µM, 0.5 mL/min, A280; percent of monomeric, dimeric and high molecular weight species
[4] = biological target: BlaP(Gln)79 (Bacillus licheniformis 749/C); assay: SEC; Superdex 200 GL 10/300, PBS pH 7.5, protein injected at 120 µM, 0.5 mL/min, A280; percent of monomeric, dimeric and high molecular weight species

| Substance | % dimeric species (SEC) [1] [%] | % dimeric species (SEC) [2] [%] | % dimeric species (SEC) [3] [%] | % high molecular weight oligomeric species (SEC) [3] [%] | % high molecular weight oligomeric species (SEC) [1] [%] | % high molecular weight oligomeric species (SEC) [2] [%] | stoichiometry N [4] |
| --- | --- | --- | --- | --- | --- | --- | --- |
| BlaP(Gln)23 | 0.6 | 0.7 |  |  |  |  |  |
| BlaP(Gln)30 | 0.4 | 0.5 |  |  |  |  |  |
| BlaP(Gln)55 | 1.1 | 1.4 |  |  |  |  |  |
| BlaP(Gln)79 | 1.1 | 1.2 | 0.9 | 1.8 | 2.5 | 3.5 |  |
| BlaP(Gln)79 (enzyme) |  |  |  |  |  |  | > 15 |
| β-lactamase from Bacillus licheniformis 749/C (BlaP) | 4.9 | 5.6 |  |  |  |  |  |
